How the values were obtained:
[1] = target: T1, tbx-43 (Y46E12A.4) (Caenorhabditis elegans) (UniProt Q1T6W8)
T1 sequence: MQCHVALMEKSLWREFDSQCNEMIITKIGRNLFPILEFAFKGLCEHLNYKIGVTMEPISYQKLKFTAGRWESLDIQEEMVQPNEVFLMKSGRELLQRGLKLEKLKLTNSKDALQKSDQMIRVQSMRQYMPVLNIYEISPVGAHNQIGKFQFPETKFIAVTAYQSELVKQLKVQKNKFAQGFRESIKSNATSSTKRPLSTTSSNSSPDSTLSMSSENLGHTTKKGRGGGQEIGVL

[2] = target: T2, tbx-38 (C24H11.3) (Caenorhabditis elegans) (UniProt Q9XVD5)
T2 sequence: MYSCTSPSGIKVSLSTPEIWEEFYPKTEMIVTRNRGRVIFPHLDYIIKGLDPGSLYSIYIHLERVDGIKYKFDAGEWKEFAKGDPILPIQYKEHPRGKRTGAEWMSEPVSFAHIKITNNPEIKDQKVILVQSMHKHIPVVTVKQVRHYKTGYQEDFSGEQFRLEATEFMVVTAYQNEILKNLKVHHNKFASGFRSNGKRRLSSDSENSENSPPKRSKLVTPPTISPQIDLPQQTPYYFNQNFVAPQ

[3] = target: T3, zip-3 (W07G1.3) (Caenorhabditis elegans) (UniProt Q9XUK2)
T3 sequence: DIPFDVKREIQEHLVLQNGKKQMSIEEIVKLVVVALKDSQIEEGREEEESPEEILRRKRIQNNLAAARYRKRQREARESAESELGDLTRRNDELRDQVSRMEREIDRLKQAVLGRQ

[4] = target: atf-7 (C07G2.2) (Caenorhabditis elegans) (UniProt Q86MD3)
Chain of atf-7 (C07G2.2) (Caenorhabditis elegans) (Q86MD3 339-508): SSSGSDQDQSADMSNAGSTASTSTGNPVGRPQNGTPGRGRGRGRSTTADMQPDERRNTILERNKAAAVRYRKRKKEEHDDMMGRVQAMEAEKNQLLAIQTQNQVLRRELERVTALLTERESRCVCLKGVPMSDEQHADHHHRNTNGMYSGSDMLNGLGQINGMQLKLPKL

[5] = target: gei-3 (T22H6.6) (Caenorhabditis elegans) (UniProt Q0G833)
Chain of gei-3 (T22H6.6) (Caenorhabditis elegans) (Q0G833 entry or part of it): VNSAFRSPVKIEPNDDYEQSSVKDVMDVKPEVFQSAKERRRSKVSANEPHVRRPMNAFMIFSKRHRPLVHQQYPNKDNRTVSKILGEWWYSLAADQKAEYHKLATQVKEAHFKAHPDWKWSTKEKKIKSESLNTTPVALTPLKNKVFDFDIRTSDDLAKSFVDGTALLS

[6] = target: T4, tbx-39 (Y73F8A.16) (Caenorhabditis elegans) (UniProt Q9NA56)
T4 sequence: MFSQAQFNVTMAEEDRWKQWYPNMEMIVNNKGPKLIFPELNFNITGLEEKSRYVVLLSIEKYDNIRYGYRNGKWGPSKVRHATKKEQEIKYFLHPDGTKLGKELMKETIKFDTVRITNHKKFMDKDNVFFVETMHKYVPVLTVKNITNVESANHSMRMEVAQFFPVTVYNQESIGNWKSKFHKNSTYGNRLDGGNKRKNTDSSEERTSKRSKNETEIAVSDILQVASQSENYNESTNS

[7] = target: T5, atf-5 (T04C10.4) (Caenorhabditis elegans) (UniProt Q22156)
T5 sequence: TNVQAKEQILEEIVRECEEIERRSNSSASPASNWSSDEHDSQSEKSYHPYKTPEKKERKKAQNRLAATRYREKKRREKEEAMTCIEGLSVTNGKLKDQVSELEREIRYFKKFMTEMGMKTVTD

[8] = target: T6, hlh-12 (C28C12.8) (Caenorhabditis elegans) (UniProt Q18277)
T6 sequence: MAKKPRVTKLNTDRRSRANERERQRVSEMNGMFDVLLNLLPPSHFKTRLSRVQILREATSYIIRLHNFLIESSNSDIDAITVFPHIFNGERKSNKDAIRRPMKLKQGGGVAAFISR

## AGGTGTTA (double strand) [8-mer AGGTGTTA]
[1]
  binding signal (PBM E-score (-0.5 to 0.5)): 0.497
[2]
  binding signal (PBM E-score (-0.5 to 0.5)): 0.494

## AACGTCAT (double strand) [8-mer AACGTCAT]
[3]
  binding signal (PBM E-score (-0.5 to 0.5)): 0.486
[4]
  binding signal (PBM E-score (-0.5 to 0.5)): 0.495

## ATGAATGG (double strand) [8-mer ATGAATGG]
[5]
  binding signal (PBM E-score (-0.5 to 0.5)): 0.489

## TCAATGAA (double strand) [8-mer TCAATGAA]
[5]
  binding signal (PBM E-score (-0.5 to 0.5)): 0.485

## AGGTGCGA (double strand) [8-mer AGGTGCGA]
[1]
  binding signal (PBM E-score (-0.5 to 0.5)): 0.48
[2]
  binding signal (PBM E-score (-0.5 to 0.5)): 0.49

## AGGTGTCA (double strand) [8-mer AGGTGTCA]
[1]
  binding signal (PBM E-score (-0.5 to 0.5)): 0.497

## AAGTGTGA (double strand) [8-mer AAGTGTGA]
[2]
  binding signal (PBM E-score (-0.5 to 0.5)): 0.494

## GTGTGAAA (double strand) [8-mer GTGTGAAA]
[1]
  binding signal (PBM E-score (-0.5 to 0.5)): 0.494
[2]
  binding signal (PBM E-score (-0.5 to 0.5)): 0.483

## AACTTGGT (double strand) [8-mer AACTTGGT]
[6]
  binding signal (PBM E-score (-0.5 to 0.5)): 0.496

## CATTGATA (double strand) [8-mer CATTGATA]
[5]
  binding signal (PBM E-score (-0.5 to 0.5)): 0.472

## ACGTCATG (double strand) [8-mer ACGTCATG]
[3]
  binding signal (PBM E-score (-0.5 to 0.5)): 0.486
[4]
  binding signal (PBM E-score (-0.5 to 0.5)): 0.496

## ATATGATG (double strand) [8-mer ATATGATG]
[3]
  binding signal (PBM E-score (-0.5 to 0.5)): 0.486

## CTACCAAG (double strand) [8-mer CTACCAAG]
[6]
  binding signal (PBM E-score (-0.5 to 0.5)): 0.473

## TGTACCAA (double strand) [8-mer TGTACCAA]
[6]
  binding signal (PBM E-score (-0.5 to 0.5)): 0.485

## AATGAATG (double strand) [8-mer AATGAATG]
[5]
  binding signal (PBM E-score (-0.5 to 0.5)): 0.481

## AACTTAGC (double strand) [8-mer AACTTAGC]
[6]
  binding signal (PBM E-score (-0.5 to 0.5)): 0.493

## ATTCGCAC (double strand) [8-mer ATTCGCAC]
[2]
  binding signal (PBM E-score (-0.5 to 0.5)): 0.489

## ATGACGTA (double strand) [8-mer ATGACGTA]
[3]
  binding signal (PBM E-score (-0.5 to 0.5)): 0.49
[4]
  binding signal (PBM E-score (-0.5 to 0.5)): 0.498
[7]
  binding signal (PBM E-score (-0.5 to 0.5)): 0.459

## TGACATCA (double strand) [8-mer TGACATCA]
[3]
  binding signal (PBM E-score (-0.5 to 0.5)): 0.49
[7]
  binding signal (PBM E-score (-0.5 to 0.5)): 0.468

## ATCACACC (double strand) [8-mer ATCACACC]
[1]
  binding signal (PBM E-score (-0.5 to 0.5)): 0.486

## CATTCATA (double strand) [8-mer CATTCATA]
[5]
  binding signal (PBM E-score (-0.5 to 0.5)): 0.474

## AACTTGGC (double strand) [8-mer AACTTGGC]
[6]
  binding signal (PBM E-score (-0.5 to 0.5)): 0.497

## AGATGACG (double strand) [8-mer AGATGACG]
[3]
  binding signal (PBM E-score (-0.5 to 0.5)): 0.487

## ATTCACAC (double strand) [8-mer ATTCACAC]
[1]
  binding signal (PBM E-score (-0.5 to 0.5)): 0.489
[2]
  binding signal (PBM E-score (-0.5 to 0.5)): 0.494

## CCAAGTTA (double strand) [8-mer CCAAGTTA]
[6]
  binding signal (PBM E-score (-0.5 to 0.5)): 0.495

## CTAAGTTA (double strand) [8-mer CTAAGTTA]
[6]
  binding signal (PBM E-score (-0.5 to 0.5)): 0.48

## ACTTGGTA (double strand) [8-mer ACTTGGTA]
[6]
  binding signal (PBM E-score (-0.5 to 0.5)): 0.472

## TGAATGAA (double strand) [8-mer TGAATGAA]
[5]
  binding signal (PBM E-score (-0.5 to 0.5)): 0.491

## GGGTGCGA (double strand) [8-mer GGGTGCGA]
[2]
  binding signal (PBM E-score (-0.5 to 0.5)): 0.485

## GGGTGTCA (double strand) [8-mer GGGTGTCA]
[1]
  binding signal (PBM E-score (-0.5 to 0.5)): 0.484

## AAACTTGG (double strand) [8-mer AAACTTGG]
[6]
  binding signal (PBM E-score (-0.5 to 0.5)): 0.487

## TCCATTCA (double strand) [8-mer TCCATTCA]
[5]
  binding signal (PBM E-score (-0.5 to 0.5)): 0.48

## GATGACGC (double strand) [8-mer GATGACGC]
[3]
  binding signal (PBM E-score (-0.5 to 0.5)): 0.493

## CCAAGTTC (double strand) [8-mer CCAAGTTC]
[6]
  binding signal (PBM E-score (-0.5 to 0.5)): 0.477

## GAGTGTGA (double strand) [8-mer GAGTGTGA]
[2]
  binding signal (PBM E-score (-0.5 to 0.5)): 0.484

## ATGACGCG (double strand) [8-mer ATGACGCG]
[3]
  binding signal (PBM E-score (-0.5 to 0.5)): 0.488

## TGAATTAA (double strand) [8-mer TGAATTAA]
[5]
  binding signal (PBM E-score (-0.5 to 0.5)): 0.474

## GGTGTCAA (double strand) [8-mer GGTGTCAA]
[1]
  binding signal (PBM E-score (-0.5 to 0.5)): 0.495

## AACAGCTG (double strand) [8-mer AACAGCTG]
[8]
  binding signal (PBM E-score (-0.5 to 0.5)): 0.481

## CAGCTGTC (double strand) [8-mer CAGCTGTC]
[8]
  binding signal (PBM E-score (-0.5 to 0.5)): 0.479

## ATGAATGA (double strand) [8-mer ATGAATGA]
[5]
  binding signal (PBM E-score (-0.5 to 0.5)): 0.489

## TCAATGGA (double strand) [8-mer TCAATGGA]
[5]
  binding signal (PBM E-score (-0.5 to 0.5)): 0.473

## GGTGTGAA (double strand) [8-mer GGTGTGAA]
[1]
  binding signal (PBM E-score (-0.5 to 0.5)): 0.499
[2]
  binding signal (PBM E-score (-0.5 to 0.5)): 0.497

## ACAGATGG (double strand) [8-mer ACAGATGG]
[8]
  binding signal (PBM E-score (-0.5 to 0.5)): 0.478

## AACATATG (double strand) [8-mer AACATATG]
[8]
  binding signal (PBM E-score (-0.5 to 0.5)): 0.465

## AACTTGGA (double strand) [8-mer AACTTGGA]
[6]
  binding signal (PBM E-score (-0.5 to 0.5)): 0.473

## ACTTGGCA (double strand) [8-mer ACTTGGCA]
[6]
  binding signal (PBM E-score (-0.5 to 0.5)): 0.492

## ATCAATGA (double strand) [8-mer ATCAATGA]
[5]
  binding signal (PBM E-score (-0.5 to 0.5)): 0.485

## AGGTGTGA (double strand) [8-mer AGGTGTGA]
[1]
  binding signal (PBM E-score (-0.5 to 0.5)): 0.499
[2]
  binding signal (PBM E-score (-0.5 to 0.5)): 0.498

## TCAATTGA (double strand) [8-mer TCAATTGA]
[5]
  binding signal (PBM E-score (-0.5 to 0.5)): 0.484

## GTGTGAAC (double strand) [8-mer GTGTGAAC]
[1]
  binding signal (PBM E-score (-0.5 to 0.5)): 0.485
[2]
  binding signal (PBM E-score (-0.5 to 0.5)): 0.492

## ACAGATGT (double strand) [8-mer ACAGATGT]
[8]
  binding signal (PBM E-score (-0.5 to 0.5)): 0.478

## GGTGCGAA (double strand) [8-mer GGTGCGAA]
[1]
  binding signal (PBM E-score (-0.5 to 0.5)): 0.48
[2]
  binding signal (PBM E-score (-0.5 to 0.5)): 0.494

## AGTGTGAA (double strand) [8-mer AGTGTGAA]
[1]
  binding signal (PBM E-score (-0.5 to 0.5)): 0.494
[2]
  binding signal (PBM E-score (-0.5 to 0.5)): 0.496

## CCCATTCA (double strand) [8-mer CCCATTCA]
[5]
  binding signal (PBM E-score (-0.5 to 0.5)): 0.478

## AACTTAGT (double strand) [8-mer AACTTAGT]
[6]
  binding signal (PBM E-score (-0.5 to 0.5)): 0.479

## ACATCTGG (double strand) [8-mer ACATCTGG]
[8]
  binding signal (PBM E-score (-0.5 to 0.5)): 0.481

## ACCATCTG (double strand) [8-mer ACCATCTG]
[8]
  binding signal (PBM E-score (-0.5 to 0.5)): 0.482

## GGGTGTGA (double strand) [8-mer GGGTGTGA]
[1]
  binding signal (PBM E-score (-0.5 to 0.5)): 0.49
[2]
  binding signal (PBM E-score (-0.5 to 0.5)): 0.487

## AAATGAAT (double strand) [8-mer AAATGAAT]
[5]
  binding signal (PBM E-score (-0.5 to 0.5)): 0.472

## AACTTCGC (double strand) [8-mer AACTTCGC]
[6]
  binding signal (PBM E-score (-0.5 to 0.5)): 0.467

## ATATGACG (double strand) [8-mer ATATGACG]
[3]
  binding signal (PBM E-score (-0.5 to 0.5)): 0.493

## ATCAATGG (double strand) [8-mer ATCAATGG]
[5]
  binding signal (PBM E-score (-0.5 to 0.5)): 0.477

## CTTGGCAC (double strand) [8-mer CTTGGCAC]
[6]
  binding signal (PBM E-score (-0.5 to 0.5)): 0.477

## AACAGATG (double strand) [8-mer AACAGATG]
[8]
  binding signal (PBM E-score (-0.5 to 0.5)): 0.468

## ACAGCTGG (double strand) [8-mer ACAGCTGG]
[8]
  binding signal (PBM E-score (-0.5 to 0.5)): 0.481

From publication PMC4434323
